Values quoted from earlier work in patent US9700485B2, “Delamination resistant pharmaceutical glass containers containing active pharmaceutical ingredients” (Corning Incorporated, priority 2013, dated 2017).
Like-named read-outs stand apart in the source and are kept apart here.

Assays:
[1] = cited from earlier work
[2] = 300 RPM, room temperature, 72 hours; cited from earlier work
[3] = lyophilized, 4° C., 40° C. and 50° C. up to 4 months; cited from earlier work
[4] = pre and post lyophilized, 0.1 mg/mL; cited from earlier work
[5] = cited from earlier work; for particulate counts =10 μm/mL / particulate counts =25 μm/mL / particulate counts =50 μm/mL: HIAC
[6] = After Lyophilization, reconstituted to 5 mg/mL
[7] = Before Lyophilization, diluted to 5 mg/mL

Substance: IMC-A12: fully human IgG1/λ monoclonal antibody binding insulin-like growth factor-I receptor (IGF-IR)
- percent monomer ([1]; −20° C. and −70° C. up to 3 months, PBS and Citrate formulations): The percent monomer did not change with time in either formulation
- percent monomer as a function of pH ([1]; −20° C. and −70° C., three weeks): The pH did not have significant effect on percent monomer
- percent loss and percent monomer as a function of pH [2]: Percent loss was least and percent monomer was highest between pH 6.0-7.0
- rate of monomer change [3]: smallest at lowest IMC-A12 concentration and at highest trehalose to IMC-A12 ratio
- secondary structure (circular dichorism) [4]: Secondary structure of IMC-A12 was not altered because of lyophilization
- particulate counts =10 μm/mL [5, 6]: 38.67 mL⁻¹
- particulate counts =25 μm/mL [5, 6]: 0.33 mL⁻¹
- particulate counts =50 μm/mL [5, 6]: 0.00 mL⁻¹
- particulate counts =10 μm/mL [5, 7]: 26.33 mL⁻¹
- particulate counts =25 μm/mL [5, 7]: 1.67 mL⁻¹
- particulate counts =50 μm/mL [5, 7]: 0.00 mL⁻¹
- particulate counts (HIAC) ([5]; before and after lyophilization, 5 mg/mL): The particulate counts did not changed significantly
